The numbers were not newly measured in article PMC4152934, which cites them from elsewhere.

The target in data set [1] is AdipoR2 (Mus musculus) (UniProt Q8BQS5).
In data set [2] the target is AdipoR1 (Mus musculus) (UniProt Q91VH1).
Chain of UniProt Q91VH1 (Q91VH1 whole entry): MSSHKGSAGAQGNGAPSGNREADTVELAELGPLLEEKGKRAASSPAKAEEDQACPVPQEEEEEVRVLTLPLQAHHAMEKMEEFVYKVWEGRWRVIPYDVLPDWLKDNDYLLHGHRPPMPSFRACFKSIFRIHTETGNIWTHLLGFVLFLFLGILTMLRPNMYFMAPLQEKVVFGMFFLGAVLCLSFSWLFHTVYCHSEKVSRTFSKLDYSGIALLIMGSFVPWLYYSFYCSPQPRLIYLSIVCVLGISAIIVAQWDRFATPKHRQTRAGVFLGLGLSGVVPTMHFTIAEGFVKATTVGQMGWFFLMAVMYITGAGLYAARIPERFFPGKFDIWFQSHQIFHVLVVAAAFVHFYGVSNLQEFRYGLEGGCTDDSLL

Chain of UniProt Q8BQS5 (Q8BQS5 whole entry): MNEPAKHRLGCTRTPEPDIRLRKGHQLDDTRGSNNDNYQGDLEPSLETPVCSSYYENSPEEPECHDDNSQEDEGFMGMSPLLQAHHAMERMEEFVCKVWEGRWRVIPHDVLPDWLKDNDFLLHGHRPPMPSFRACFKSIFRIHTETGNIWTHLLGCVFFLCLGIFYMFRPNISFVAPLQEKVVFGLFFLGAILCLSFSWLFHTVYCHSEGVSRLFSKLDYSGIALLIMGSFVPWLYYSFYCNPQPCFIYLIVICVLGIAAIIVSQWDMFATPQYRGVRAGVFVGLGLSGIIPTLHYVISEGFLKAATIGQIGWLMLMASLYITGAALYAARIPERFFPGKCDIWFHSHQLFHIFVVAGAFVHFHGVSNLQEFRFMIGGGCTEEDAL

By Kd is commonly meant the equilibrium constant for the complex coming apart. Regarding “globular adiponectin trimer globular domain (from UniProt Q60994)”, the figures for the Kd in data set [1] and in data set [2] were 14.4 nM and 1.14 nM, respectively.
